# B1: BH3-interacting domain death agonist (Homo sapiens), P55957 (parent)
# chain: MDCEVNNGSSLRDECITNLLVFGFLQSCSDNSFRRELDALGHELPVLAPQWEGYDELQTDGNRSSHSRLGRIEADSESQEDIIRNIARHLAQVGDSMDRSIPPGLVNGLALQLRNTSRSEEDRNRDLATALEQLLQAYPRDMEKEKTMLVLALLLAKKVASHTPSLLRDVFHTTVNFINQNLRTYVRSLARNGMD
# B2: Bcl-2-like protein 2 (Homo sapiens), Q92843 (parent)
# chain: MATPASAPDTRALVADFVGYKLRQKGYVCGAGPGEGPAADPLHQAMRAAGDEFETRFRRTFSDLAAQLHVTPGSAQQRFTQVSDELFQGGPNWGRLVAFFVFGAALCAESVNKEMEPLVGQVQEWMVAYLETQLADWIHSSGGWAEFTALYGDGALEEARRLREGNWASVRTVLTGAVALGALVTVGAFFASK
# B3: BH3-interacting domain death agonist (Homo sapiens), P55957 (parent)
# chain: B1 chain
# partner: B2 chain
# B4: BH3-interacting domain death agonist (Homo sapiens), P55957 (parent)
# chain: B1 chain
# partner: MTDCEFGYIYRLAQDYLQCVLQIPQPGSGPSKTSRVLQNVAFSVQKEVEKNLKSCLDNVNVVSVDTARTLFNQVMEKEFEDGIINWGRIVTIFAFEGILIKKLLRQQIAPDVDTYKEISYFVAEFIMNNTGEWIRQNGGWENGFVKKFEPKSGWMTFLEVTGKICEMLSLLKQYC
# Variants of: B1
# Settings: with bcl2_human BCL2, P10415
# Chain of bcl2_human BCL2, P10415 (P10415 whole entry): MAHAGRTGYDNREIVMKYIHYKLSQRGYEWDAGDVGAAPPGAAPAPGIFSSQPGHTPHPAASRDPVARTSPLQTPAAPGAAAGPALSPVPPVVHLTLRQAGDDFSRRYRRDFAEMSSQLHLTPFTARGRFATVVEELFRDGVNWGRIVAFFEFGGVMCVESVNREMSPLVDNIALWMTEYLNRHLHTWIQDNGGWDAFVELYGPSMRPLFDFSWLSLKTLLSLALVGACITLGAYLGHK
row,Variant,effect of a mutation on the interaction
1,L90A;D95A,disrupting interaction

# Variants of: B1
# Settings: with BCL2L1, Q07817
# Chain of BCL2L1, Q07817 (Q07817 whole entry): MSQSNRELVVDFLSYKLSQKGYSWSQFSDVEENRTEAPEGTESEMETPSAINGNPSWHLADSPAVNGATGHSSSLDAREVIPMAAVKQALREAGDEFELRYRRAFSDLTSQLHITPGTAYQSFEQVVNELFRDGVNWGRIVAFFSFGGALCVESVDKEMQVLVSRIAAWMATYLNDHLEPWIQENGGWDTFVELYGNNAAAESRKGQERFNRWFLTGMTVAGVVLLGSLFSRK
row,Variant,effect of a mutation on the interaction
1,L90A;D95A,disrupting interaction

# Variants of: B1
# Settings: with mcl1_human MCL1, Q07820
# Chain of mcl1_human MCL1, Q07820 (Q07820 whole entry): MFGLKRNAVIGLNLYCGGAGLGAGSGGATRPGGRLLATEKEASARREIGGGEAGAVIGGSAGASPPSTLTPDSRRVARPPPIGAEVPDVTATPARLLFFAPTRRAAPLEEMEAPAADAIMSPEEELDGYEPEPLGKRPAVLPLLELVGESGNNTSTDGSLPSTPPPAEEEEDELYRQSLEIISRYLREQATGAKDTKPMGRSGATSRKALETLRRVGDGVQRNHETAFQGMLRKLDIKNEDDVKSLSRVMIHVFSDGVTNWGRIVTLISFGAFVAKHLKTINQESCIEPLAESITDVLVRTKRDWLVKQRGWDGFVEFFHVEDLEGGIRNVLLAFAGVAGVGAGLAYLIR
row,Variant,effect of a mutation on the interaction
1,L90A;D95A,disrupting interaction

# Variants of: B2
# Settings: with bid_mouse Bid
row,Variant,effect of a mutation on the interaction
1,R95P,disrupting interaction

# Variants of: B3
# Settings: with BCL2L2, Q92843
row,Variant,effect of a mutation on the interaction
1,L90A;D95A,disrupting interaction

# Variants of: B4
# Settings: with BCL2A1, Q16548
row,Variant,effect of a mutation on the interaction
1,L90A;D95A,disrupting interaction

# Source: IntAct's records for PubMed 16697956
